Measured values reported in the RNAGym collection of RNA variant scans (doi:10.1101/gr.219683.116).

B1: mRNA-splicing (parent)
chain: AGUUGCUGCUGGGAGCUCCAGCACAGUGAAAUGGACAGAAGGGCAGAGCAA

Variants of: B1
Assay: exon inclusion enrichment index; higher = more inclusion; WT1 exon 5 minigene, HEK293

Row | Variant | exon inclusion enrichment index
1 | G5C C6U G8C C9U U10C G13U A14C | 0.936
2 | G5A C6G U7G C9A G12A G13C | 0.0057
3 | C6A U7A C9A U10A G33U | 0.2
4 | G5A C6U U7A G8U C9A A47C | 0.133
5 | C6A U7A C9A U10A G34A A35U | 0.216
6 | C6U C9A U10C | 1.46
7 | G5C C6A U7C G8A U10A G21C | 0.0715
8 | G2C G5U G8U C9U | 0.122
9 | G5C C6G U7C U10C A23U C24U | 0.822
10 | G2C U3G C6A U7C C9A U10C | 3.19
11 | C6A U7C C9A U10C G38C A39G | 2.65
12 | G5A C6G U7G C9A C44A | 0.00167
13 | G5A C6G U7G C9A G21A C22G | 0.00502
14 | G5A C6G U7G C9A G28C | 0.00255
15 | G5C C6A U7C G8A U10A C36U A37G | 0.111
16 | C6A U7A C9A U10A A23G | 1.32
17 | G5C C6A U7G C9A | 0.352
18 | G5U G8U C9U C22G | 0.183
19 | G5A C6U U7A G8U C9A U27G G28U | 0.00125
20 | G5A C6U U7A G8U C9A C16A U17A | 0.0573
21 | G5A C6U U7A G8U C9A C16A U17G | 0.0322

Row | Variant | exon inclusion enrichment index
22 | C6A U7C C9A U10C A47C G48U | 3.09
23 | G5A C6U U7A G8U C9A A39G A40C | 0.102
24 | G5C C6A G8A U10A | 0.0612
25 | G5A C6G U7G C9A G33A G34C | 0.000823
26 | A14U | 0.0353
27 | G5U C9A | 0.991
28 | G5A U7C G8A U10C A31G U32G | 1.52
29 | G5C C6U G8C C9U U10C C18G C19G | 2.78
30 | G5C C6U G8C C9U U10C C18G C19A | 2.82
31 | G5U G8U C9U C22U A23G | 0.109
32 | C16U | 0.0903
33 | G5C C6U G8C C9U U10C C22U | 1.44
34 | G5C C6U G8C C9U U10C G11C G12C | 0.631
35 | C18G C19G | 3.04
36 | G5A U7C G8A U10C G13C | 1.1
37 | G5A C6U U7A G8U C9A A35C C36U | 0.00346
38 | G5U G8U C9U A45G | 0.366
39 | U3A U4A C6A U7C C9A U10C | 1.08
40 | G5C C6U G8C C9U U10C A47G G48U | 0.205
41 | G2A U3C G5A C6G U7G C9A | 0.0183
42 | G5C C6A U7C G8A U10A A40G | 0.0695

Row | Variant | exon inclusion enrichment index
43 | A47U G48U | 0.125
44 | G5A C6U U7A G8U C9A G46C A47C | 0.144
45 | C6G G8U C9U | 0.101
46 | G5A C6G U7G C9A G42A G43C | 0.0943
47 | G2C C6A U7A C9A U10A | 0.788
48 | C6A U7A C9A U10A G43U C44U | 0.125
49 | G5A C6G U7G C9A C19U A20G | 0.00155
50 | C6A U7C C9A U10C C18G C19U | 1.28
51 | G5A U7C G8A U10C G43C C44U | 1.59
52 | G5A C6G U7G C9A G11C G12A | 0.000679
53 | G5A C6G U7G C9A G26C U27A | 0.00255
54 | G5C C6U G8C C9U U10C G41U G42C | 2.93
55 | C6A U7A C9A U10A G42U G43A | 1.42
56 | G26A U27G | 0.311
57 | G5A U7C G8A U10C A39C | 0.541
58 | G5C C6A U7C G8A U10A G34U | 0.012
59 | G5C C6G U7C U10C G38C A39G | 2.71
60 | G5C C6U G8C C9U U10C A29U | 0.63
61 | G5U G8U C9U A39G | 0.0522
62 | G5A C6G U7G C9A C19G | 0.00133
63 | C6A U7C C9A U10C A31U U32G | 2.15

Row | Variant | exon inclusion enrichment index
64 | C6G U7C G8A U10A | 0.0835
65 | C19A A20U | 1.14
66 | G5C C6U G8C C9U U10C G48A | 2.76
67 | G5U G8U C9U G34U A35U | 0.0186
68 | C6A U7A C9A U10A C24G A25U | 0.778
69 | G5A C6U U7A G8U C9A C44A A45G | 0.0995
70 | C6A U7A C9A U10A A47C G48A | 0.547
71 | G5A C6G U7G C9A U17G C18U | 0.00166
72 | G5A C6G U7G C9A C18G C19U | 0.00119
73 | G5A C6G U7G C9A G41C | 0.013
74 | G5A C6G U7G C9A G41A | 0.0013
75 | G5A C6G U7G C9A C16G U17A | 0.00122
76 | G5A C6U U7A G8U C9A U27A G28U | 0.0109
77 | G5A U7C G8A U10C G46C A47U | 2.03
78 | C6A U7C U10G | 1.66
79 | G5A C6U U7A G8U C9A C19U A20C | 0.078
80 | G5A C6U U7A G8U C9A C19U A20U | 0.00982
81 | G5A U7C G8A U10C U27C G28U | 1.74
82 | G5C C6A U7C G8A U10A A37G G38A | 0.104
83 | C6A U7C C9A U10C C19A A20G | 0.968
84 | G5C C6G U7C C9G U10G | 0.749
